Assay results published in the RNAGym collection of RNA variant scans (doi:10.1073/pnas.2313332121).

B1: TPR t1 (parent)
chain: GACCAAUCUGCCCUCAGAGCUCGAGAACAUCUUCGGAUGCAGAGGAGGCAGGCUUCGGUGGCGCGAUAGCGCCAACGUCCUCAACCUCCAAUGCAUCCCACCACAUGAUGAUGCCUGAAGAGCCUUGGUUUUUUG

Variants of: B1
Experiment: polymerase ribozyme fitness, log enrichment relative to wild type (log ratio); higher = more active; in vitro selection for triplet polymerase activity
Summary of the method: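 Mutant libraries for each subunit of a heterodimeric triplet polymerase ribozyme were made by PCR and then transcribed. Each library underwent one round of in vitro selection in triplicate: annealing with a biotinylated primer, the partner subunit and triplets, frozen incubation at −7 °C, gel excision of extended constructs, streptavidin-bead capture and RT-PCR. Input and output libraries were Illumina-sequenced, and only genotypes with ≥10 input reads and ≥1 read per output were kept. Fitness is the logarithm, base 2, of genotype enrichment over wild-type enrichment, computed from inverse-variance-weighted replicate averages.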

| Variant | polymerase ribozyme fitness (log ratio) |
| --- | --- |
| GACCAAUCUGCCCUCAGAGCUCGAGAACAUCUUCGGAUGCAGCGUAGGCAGGCUUCGGUGGCGCGAUAGCGCCAACGUCCUCAACCUCCAAUGCAUCCCACCACAUGAUGAUGCCUGAAGAGCCUUGGUUUUUUG | -3.71 |
| GACCAAUCUGCCCUCAGAGCUCGAGAACAUCUUCGGAUGCAGAGUAGGCAGGCUUUGGUGGCGCGAUAGCGCCAACGUCCUCAACCUCCAAUGCAUCCCACCACAUGAUGAUGCCUGAAGAUCCUUGGCUUUUUG | -1.59 |
| GACCAAUCUGCCCUCAGAGCUCGAGAAAAUCUUCGGAUGCAGAGGAGGCAGGCUUCGGUGGCGCGAUAGCGCCAACGUCCUCAACCUCCAAUGCAUCCCACCACAUGAUGAUGCCUGAACAGCCUUGGUUUUUUG | -2.79 |
| GACCAUUCUGCCCUCAGAGCUCGAGAACAUCUUCGGAUGCAGAGGAGGCAGGCUUCGGUGGCGCGAUAGCGCCAACGUCCUCAACCUCCUAUGCAUCGCACUACAUGUUGAUGCCUGAAGAGGCUUGGUUUUUUG | -6.7 |
| GCCCAAUCUGCCCUCAGAGCUCGAGAACAUCUUCGGAUGCAGAGGAGGCAGGCUUCGGUGGCGCGAUAGCGCCAACGCCCUCAACCUCCAAUGCAUCCCACCACAUGAUGAUGCCUGAAGAGCCUUGGUUUUUUG | -1.64 |
| GACCAAUCUGCCCGCAGAGCUCGAGAACAUCUUCGGAUGCAGAGGAGGCAGGCUUCGGUGGCGCGAUACCGCCAACGUCCUCAACCUCCAAUGCAUCCCACCACAUGAUGAUGCCUGAAGAGCCUUGGUUUUUUG | -3.2 |
| GAUCAAUCUGCCCUCAGAGCUCGAGAACAUCUUCGGAUGCAGAGGAGGCAGGCUUCGGUAGCGCGAUAGCGCCAACGUCCUAAACCUCCAAUGCAUCCCACCACAAGAUGAUGCCUGAAAAGCCUUGGUUUUUUG | 0.775 |
| GACCGAUCUGCCCUCAGAGCUCGAGAACAUCUUCGUAUGCAGAGGAGGCAGGCUUCGGUGACGCGAUAGCGCCAACGUCCUCAACCUCCAAUGCAUCCCACCACAUGAUGCUGCCUGACGAGCCUUGGUUUUUUG | -2.68 |
| GACCAAUCUGCCCUCAGAGCUCGAGAACAUCUUCGGAUGCAGAGGACGCAGGCUUCGGUGGCGCGAUAGCGCCAACGUCCUCAACCUCCAAUGCAUCCCACCACAUGAUGAUCCCUGAAGAGCCUUGGUUUUUUG | -3.85 |
| GACCAAUCUGGCCUCAGCGCUCGAGAACAUCUUCGGAUGCAGAGGAGGAAGGCUUCGGUGGCGCGAUAGCGCCAACGUCCUCAACCUGCAAUGCAUCCCACCACAUGAAGAUGCCUGAAGAGCCUUGGUUUUUUG | -6.8 |
| GACCAAUCUGCCCUCAGAGCUCGAGAACAUCUACGGAUGCAGAGGAGGCAGGCUUCGGUGACGCGAUAGCGCCAACGUCCUCAACCACCAAUGCAUCCCACCACAUGAUGAUGCCUGAAGAGCCUUGGUUUUGUG | -4.05 |
| GACCAAUCUGCUCUCAGAUCUCGAGAACAUCUUCGGAUGCAGAGGAGGCAGGCUUCGGUGGCGCGAUAGCGCCAACGUCCUCAACCUCCCAUGCAUCCCACCACAUGAUGAUGCCUGAAGAGCCUUGGUUUUUUG | -2.37 |
| GACCAAUCUGCCCUCAGAGCUCGCGAACAUCUUCGGAUGCAGAGGAGGCAGGCUUCGGUGACGCGAUAGCGCCAACGUCCUCAACCUCCAAUGCAUCCCACCACAUGAUGAUGCCUGAAGAGCCUUGGUUUUUUG | -6.26 |
| GACCAAUCUGCCCUCAGAGCUCGAGAACAUCUUCGGAUGAAGAGGAGGCAGGCUUCGGUGGCGCGAUAGCGCCAACGUCCUCAACCUACAAUGCAUCCCACCACAUGAUGAUGCCUAAAGAGCCUUGGUUUUUUG | -3.85 |
| GACCAAUCUGUCCUCAGAGCUCGAGAACAUCUUCGGAUGCAGAGGAGGCAGGCUUCGGUGGCGCGAUAGCGCCAACGUCCUCAACCUCCAAUGCAUCCCACCACAUGAUGAUGCAUGAAGAGCCGUGGUUUUUUG | -2.51 |
| GACCAAUCUGGCCUCAGAGCUCGAGAACAUCUUCGGCUGCCGAGGAGGCAGGCUUCGGUGGCGCGAUAGCGCCAACGUCCUCAACCUCCAAUGCAUCCCAACACAUGAUGAUGCCUGAAGCUCCUUGGUUUUUUG | -1.01 |
| GACCAAUCUGCCCUCAGAGCUCGAGAACAUCUUCGGAUCCAGAGAAGGCAGGCUUCGGUGGCGCGAUAGCGCCAACGUCCUCAACCUCCAAUGCAUCCCACCACAUGAUGAUGCCUGAAGAGCCUUGGUUUUUUG | -0.954 |
| GACCAAUCUGCCAUCAGAGCUCGAGAACAUCUUCGGAUGCAGAGGAGGCAGGCUUCGGUGGCGCGAUAGCGCCAACGUCCUCAACCUCCAAUGAAUCCCACCACAUGAUGAUGCCUGAAGAGCAUUGGUUUUUUG | 0.414 |
| GACCAAUCUGCCCUCAGAGCUCGAGAACAUCUUCGGAUGCAGAGGAGGCAGGCUUCGGUGGUGCGAUAGCGCCAACGUCCUCAACCUCCAAUGCAUCCCACCACAUGAUGAUGCCUAAAGAGCCUUGGUUUUUUG | -1.28 |
| GACCAAUCUGCCCUCAGAGCUCGUGAACAUCUUCGGAUGCAGAGGAGGCAGGCUUCGGUGGCGCGAUAGCGCCAACGUCCUCAACCUCCAAUGCAUCCCACCACAUGAUGAUGCCUGAAGAGCAUUGGUUUUUUG | -3.28 |
| GACCAAUCUGUCCUCAGAGCUCGAGAACAUCUUCGGAUGCAGAGGAGGCAGGCUUCGGUGGCGCGAUAGCGCCAACGUCCUCAACCUCCAAUGCAUCCCACCACAUGAUGAUGCCUGAAGAGCCUUGCUUUUUUG | -2.9 |
